For 95 substances, abundance fitness results are on record in the Human Domainome abundance scans (Beltran et al. 2025).

± gives the uncertainty stated by the source.

The nature of this series: abundance fitness (aPCA) (normalised: wild type 0, dead -1); higher = more abundant; growth selection in yeast, the domain comes from the species named. The following applies: Homo sapiens.
“Transcriptional activator Myb K182M, P10242” came in with an abundance fitness of 0.037 ± 0.085.

The substance “Transcriptional activator Myb K182N, P10242” displayed an abundance fitness of -0.177 ± 0.15.

In turn, “Transcriptional activator Myb K182P, P10242” came in with an abundance fitness of -0.678 ± 0.15.

The substance “Transcriptional activator Myb K182Q, P10242” yielded an abundance fitness of 0.136 ± 0.12.

Consider “Transcriptional activator Myb K182R, P10242”, for which the abundance fitness was 0.068 ± 0.056.

Take “Transcriptional activator Myb K182S, P10242”: the abundance fitness was -0.161 ± 0.069.

In turn, “Transcriptional activator Myb K182T, P10242” came in with an abundance fitness of -0.696 ± 0.14.

With “Transcriptional activator Myb K182V, P10242”, the abundance fitness is -0.176 ± 0.058.

With “Transcriptional activator Myb K182W, P10242”, the abundance fitness is -0.184 ± 0.076.

“Transcriptional activator Myb K182Y, P10242” had an abundance fitness of -0.253 ± 0.17.

“Transcriptional activator Myb K192A, P10242” displayed an abundance fitness of -0.247 ± 0.12.

For the substance “Transcriptional activator Myb K192C, P10242”, the abundance fitness was -0.024 ± 0.12.

As to “Transcriptional activator Myb K192D, P10242”, the abundance fitness is -0.448 ± 0.21.

“Transcriptional activator Myb K192F, P10242” yielded an abundance fitness of -0.301 ± 0.29.

In turn, “Transcriptional activator Myb K192G, P10242” yielded an abundance fitness of -0.219 ± 0.053.

Take “Transcriptional activator Myb K192H, P10242”: the abundance fitness is -0.156 ± 0.2.

“Transcriptional activator Myb K192I, P10242” showed an abundance fitness of -0.063 ± 0.14.

The substance “Transcriptional activator Myb K192L, P10242” returned an abundance fitness of 0.004 ± 0.095.

For “Transcriptional activator Myb K192M, P10242”, the abundance fitness is -0.122 ± 0.16.

Consider “Transcriptional activator Myb K192N, P10242”, for which the abundance fitness was -0.162 ± 0.43.

For “Transcriptional activator Myb K192P, P10242”, the abundance fitness was -0.082 ± 0.12.

Turning to “Transcriptional activator Myb K192Q, P10242”, the abundance fitness is -0.337 ± 0.16.

Take “Transcriptional activator Myb K192R, P10242”: the abundance fitness is -0.04 ± 0.064.

Substance “Transcriptional activator Myb K192S, P10242” returned an abundance fitness of -0.074 ± 0.093.

“Transcriptional activator Myb K192T, P10242” gave an abundance fitness of -0.232 ± 0.13.

The substance “Transcriptional activator Myb K192V, P10242” registered an abundance fitness of -0.207 ± 0.074.

With “Transcriptional activator Myb K192W, P10242”, the abundance fitness was -0.334 ± 0.11.

Consider “Transcriptional activator Myb K192Y, P10242”, for which the abundance fitness was -0.535 ± 0.17.

“Transcriptional activator Myb K204A, P10242” showed an abundance fitness of 0.054 ± 0.091.

Regarding “Transcriptional activator Myb K204C, P10242”, the abundance fitness is -0.317 ± 0.12.

With “Transcriptional activator Myb K204D, P10242”, the abundance fitness is -0.164 ± 0.15.

For “Transcriptional activator Myb K204E, P10242”, the abundance fitness is -0.062 ± 0.11.

Consider “Transcriptional activator Myb K204F, P10242”, for which the abundance fitness was -0.097 ± 0.19.

Take “Transcriptional activator Myb K204G, P10242”: the abundance fitness was -0.166 ± 0.11.

Regarding “Transcriptional activator Myb K204H, P10242”, the abundance fitness is -0.401 ± 0.39.

Consider “Transcriptional activator Myb K204I, P10242”, for which the abundance fitness was -0.055 ± 0.16.

“Transcriptional activator Myb K204L, P10242” registered an abundance fitness of -0.07 ± 0.18.

For “Transcriptional activator Myb K204M, P10242”, the abundance fitness was -0.111 ± 0.11.

Take “Transcriptional activator Myb K204N, P10242”: the abundance fitness was -0.153 ± 0.097.

Turning to “Transcriptional activator Myb K204Q, P10242”, the abundance fitness was 0.192 ± 0.19.

The substance “Transcriptional activator Myb K204R, P10242” came in with an abundance fitness of 0.066 ± 0.12.

In turn, “Transcriptional activator Myb K204T, P10242” came in with an abundance fitness of -0.012 ± 0.13.

Substance “Transcriptional activator Myb K204V, P10242” registered an abundance fitness of -0.29 ± 0.22.

For the substance “Transcriptional activator Myb K204W, P10242”, the abundance fitness is -0.443 ± 0.11.

Substance “Transcriptional activator Myb K204Y, P10242” had an abundance fitness of -0.16 ± 0.25.

In turn, “Transcriptional activator Myb L172A, P10242” gave an abundance fitness of -0.291 ± 0.076.

For “Transcriptional activator Myb L172C, P10242”, the abundance fitness was -0.268 ± 0.14.

For “Transcriptional activator Myb L172E, P10242”, the abundance fitness was -0.177 ± 0.089.

Regarding “Transcriptional activator Myb L172F, P10242”, the abundance fitness was -0.35 ± 0.24.

“Transcriptional activator Myb L172H, P10242”: the abundance fitness is -0.173 ± 0.14.

The substance “Transcriptional activator Myb L172I, P10242” registered an abundance fitness of -0.354 ± 0.16.

Substance “Transcriptional activator Myb L172K, P10242” yielded an abundance fitness of -0.108 ± 0.1.

In turn, “Transcriptional activator Myb L172M, P10242” gave an abundance fitness of -0.175 ± 0.09.

“Transcriptional activator Myb L172N, P10242” had an abundance fitness of -0.34 ± 0.14.

The substance “Transcriptional activator Myb L172P, P10242” displayed an abundance fitness of -0.486 ± 0.19.

In turn, “Transcriptional activator Myb L172Q, P10242” registered an abundance fitness of -0.117 ± 0.1.

Take “Transcriptional activator Myb L172R, P10242”: the abundance fitness is -0.279 ± 0.056.

“Transcriptional activator Myb L172S, P10242” had an abundance fitness of -0.236 ± 0.085.

The substance “Transcriptional activator Myb L172T, P10242” had an abundance fitness of -0.359 ± 0.11.

The substance “Transcriptional activator Myb L172V, P10242” gave an abundance fitness of -0.36 ± 0.073.

For the substance “Transcriptional activator Myb L172W, P10242”, the abundance fitness is -0.303 ± 0.089.

Take “Transcriptional activator Myb L173A, P10242”: the abundance fitness is -0.623 ± 0.11.

With “Transcriptional activator Myb L173C, P10242”, the abundance fitness was 0.012 ± 0.12.

For the substance “Transcriptional activator Myb L173D, P10242”, the abundance fitness was -0.958 ± 0.22.

“Transcriptional activator Myb L173E, P10242”: the abundance fitness is -0.621 ± 0.088.

Consider “Transcriptional activator Myb L173G, P10242”, for which the abundance fitness was -1.08 ± 0.11.

“Transcriptional activator Myb L173I, P10242” gave an abundance fitness of 0.253 ± 0.44.

With “Transcriptional activator Myb L173M, P10242”, the abundance fitness was -0.305 ± 0.12.

The substance “Transcriptional activator Myb L173P, P10242” registered an abundance fitness of -0.656 ± 0.23.

In turn, “Transcriptional activator Myb L173Q, P10242” came in with an abundance fitness of -1.13 ± 0.25.

Regarding “Transcriptional activator Myb L173R, P10242”, the abundance fitness is -0.961 ± 0.078.

In the case of “Transcriptional activator Myb L173S, P10242”, the abundance fitness is -0.933 ± 0.11.

For the substance “Transcriptional activator Myb L173T, P10242”, the abundance fitness was -0.28 ± 0.12.

With “Transcriptional activator Myb L173V, P10242”, the abundance fitness is -0.127 ± 0.093.

Consider “Transcriptional activator Myb L173W, P10242”, for which the abundance fitness was -0.968 ± 0.11.

“Transcriptional activator Myb L173Y, P10242” came in with an abundance fitness of -0.627 ± 0.31.

Substance “Transcriptional activator Myb L199A, P10242” returned an abundance fitness of -0.05 ± 0.062.

On to “Transcriptional activator Myb L199C, P10242”, for which the abundance fitness is -0.076 ± 0.1.

Turning to “Transcriptional activator Myb L199D, P10242”, the abundance fitness worked out at 0.011 ± 0.12.

Turning to “Transcriptional activator Myb L199E, P10242”, the abundance fitness is -0.005 ± 0.081.

Substance “Transcriptional activator Myb L199F, P10242” came in with an abundance fitness of -0.179 ± 0.097.

“Transcriptional activator Myb L199H, P10242” showed an abundance fitness of -0.228 ± 0.2.

In turn, “Transcriptional activator Myb L199I, P10242” showed an abundance fitness of -0.056 ± 0.1.

As for “Transcriptional activator Myb L199K, P10242”, the abundance fitness came to 0.025 ± 0.083.

In turn, “Transcriptional activator Myb L199M, P10242” had an abundance fitness of -0.071 ± 0.095.

Regarding “Transcriptional activator Myb L199N, P10242”, the abundance fitness was 0.043 ± 0.14.

Substance “Transcriptional activator Myb L199P, P10242” yielded an abundance fitness of -0.013 ± 0.1.

In the case of “Transcriptional activator Myb L199Q, P10242”, the abundance fitness was -0.152 ± 0.12.

In turn, “Transcriptional activator Myb L199R, P10242” returned an abundance fitness of -0.045 ± 0.057.

Turning to “Transcriptional activator Myb L199S, P10242”, the abundance fitness came to 0.041 ± 0.068.

“Transcriptional activator Myb L199T, P10242” showed an abundance fitness of -0.043 ± 0.092.

For the substance “Transcriptional activator Myb L199V, P10242”, the abundance fitness turned out to be 0.032 ± 0.065.

In turn, “Transcriptional activator Myb L199W, P10242” returned an abundance fitness of -0.167 ± 0.1.

Consider “Transcriptional activator Myb L199Y, P10242”, for which the abundance fitness was -0.175 ± 0.21.

In turn, “Transcriptional activator Myb M189A, P10242” had an abundance fitness of -0.343 ± 0.068.
